Our source for the mean fold increase of OD450 values is US20210085770A1.

Experiment [1] concerns the target recombinant SARS-CoV-2 S1 protein expressed from insect (Sf9) cells (S1-His, SinoBiological, Cat. No. 40591-V08B1) (SARS-CoV-2) (UniProt P0DTC2).
Experiment [2] shares this target. Description: ELISA, coated insect-cell S1-His, HRP-conjugated lectin 10 ug/mL. In general terms: An ELISA detects its analyte on a solid surface through an enzyme-linked reagent.

Like-named read-outs stand apart in the source and are kept apart here.

Chain of Maclura pomifera lectin (MPA) (P18674 whole entry): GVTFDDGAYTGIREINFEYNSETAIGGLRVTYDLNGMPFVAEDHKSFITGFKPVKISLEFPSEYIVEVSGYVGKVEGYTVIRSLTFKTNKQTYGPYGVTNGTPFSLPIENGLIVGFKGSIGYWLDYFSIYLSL
Chain of Maclura pomifera lectin (MPA) (P18676 whole entry, further chain): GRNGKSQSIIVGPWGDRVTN
Chain of Peanut Agglutinin (PNA), lectin from Arachis hypogaea (P02872 24-259 limits assumed): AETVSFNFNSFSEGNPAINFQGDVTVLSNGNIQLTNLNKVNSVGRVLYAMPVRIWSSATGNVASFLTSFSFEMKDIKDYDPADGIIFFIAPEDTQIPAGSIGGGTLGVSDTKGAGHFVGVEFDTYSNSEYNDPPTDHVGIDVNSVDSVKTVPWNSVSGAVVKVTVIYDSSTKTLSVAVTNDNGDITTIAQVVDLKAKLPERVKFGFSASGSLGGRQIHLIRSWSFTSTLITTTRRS

Turning to “SPM320 IgM anti-TF monoclonal antibody (Abnova, Cat. No. MAB13207)”, in experiment [1], the mean fold increase of OD450 is 5.5 fold. Regarding Maclura pomifera lectin (MPA), in experiment [2], the mean fold increase of OD450 stood at 7.51 fold. Turning to mouse monoclonal IgG3 antibody JAA-F11, the mean fold increase of OD450 in experiment [1] came to 3.32 fold.

On to “Peanut Agglutinin (PNA), lectin from Arachis hypogaea (from UniProt P02872 24-259)”, for which, in experiment [2], the mean fold increase of OD450 was 22.7 fold. On the same count and under the same terms, with Salvia sclarea lectin (SSA) the figure was 3.97 fold. Turning to “Tn218 IgM anti-Tn monoclonal antibody (Abnova, Cat. No. MAB6198)”, in experiment [1], the mean fold increase of OD450 turned out to be 1.77 fold.
